# B1: Carbonic anhydrase-related protein (Homo sapiens), P35219 (parent)
# chain: MADLSFIEDTVAFPEKEEDEEEEEEGVEWGYEEGVEWGLVFPDANGEYQSPINLNSREARYDPSLLDVRLSPNYVVCRDCEVTNDGHTIQVILKSKSVLSGGPLPQGHEFELYEVRFHWGRENQRGSEHTVNFKAFPMELHLIHWNSTLFGSIDEAVGKPHGIAIIALFVQIGKEHVGLKAVTEILQDIQYKGKSKTIPCFNPNTLLPDPLLRDYWVYEGSLTIPPCSEGVTWILFRYPLTISQLQIEEFRRLRTHVKGAELVEGCDGILGDNFRPTQPLSDRVIRAAFQ
# partner: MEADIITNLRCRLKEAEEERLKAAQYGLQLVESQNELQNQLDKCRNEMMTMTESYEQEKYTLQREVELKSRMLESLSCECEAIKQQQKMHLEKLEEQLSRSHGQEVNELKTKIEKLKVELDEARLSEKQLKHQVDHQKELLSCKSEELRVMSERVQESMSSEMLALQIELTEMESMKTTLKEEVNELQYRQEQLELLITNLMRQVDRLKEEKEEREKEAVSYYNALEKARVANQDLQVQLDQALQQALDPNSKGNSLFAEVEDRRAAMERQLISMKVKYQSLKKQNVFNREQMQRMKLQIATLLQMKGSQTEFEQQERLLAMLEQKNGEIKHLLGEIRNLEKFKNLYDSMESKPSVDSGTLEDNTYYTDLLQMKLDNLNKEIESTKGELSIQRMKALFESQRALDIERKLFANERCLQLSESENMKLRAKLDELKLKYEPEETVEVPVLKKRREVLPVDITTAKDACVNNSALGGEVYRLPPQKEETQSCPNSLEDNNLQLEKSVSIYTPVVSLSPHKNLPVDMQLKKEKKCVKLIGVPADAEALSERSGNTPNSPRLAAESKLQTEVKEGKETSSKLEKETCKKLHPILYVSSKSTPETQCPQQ
# B2: SH2 domain-containing protein 1A (Homo sapiens), O60880 (parent)
# chain: MDAVAVYHGKISRETGEKLLLATGLDGSYLLRDSESVPGVYCLCVLYHGYIYTYRVSQTETGSWSAETAPGVHKRYFRKIKNLISAFQKPDQGIVIPLQYPVEKKSSARSTQGTTGIREDPDVCLKAP
# partner: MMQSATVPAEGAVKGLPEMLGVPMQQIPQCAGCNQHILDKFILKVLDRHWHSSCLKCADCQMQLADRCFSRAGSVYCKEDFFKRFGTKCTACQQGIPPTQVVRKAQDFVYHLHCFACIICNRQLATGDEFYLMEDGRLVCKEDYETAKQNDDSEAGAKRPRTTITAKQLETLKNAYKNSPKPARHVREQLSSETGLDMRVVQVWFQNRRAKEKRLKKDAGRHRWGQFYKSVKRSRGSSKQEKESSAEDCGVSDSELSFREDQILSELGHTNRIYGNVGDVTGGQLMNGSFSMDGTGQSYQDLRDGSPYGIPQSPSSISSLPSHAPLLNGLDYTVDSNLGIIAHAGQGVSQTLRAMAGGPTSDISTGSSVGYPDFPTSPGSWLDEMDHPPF
# B3: Tyrosine aminotransferase (Homo sapiens), P17735 (parent)
# chain: MDPYMIQMSSKGNLPSILDVHVNVGGRSSVPGKMKGRKARWSVRPSDMAKKTFNPIRAIVDNMKVKPNPNKTMISLSIGDPTVFGNLPTDPEVTQAMKDALDSGKYNGYAPSIGFLSSREEIASYYHCPEAPLEAKDVILTSGCSQAIDLCLAVLANPGQNILVPRPGFSLYKTLAESMGIEVKLYNLLPEKSWEIDLKQLEYLIDEKTACLIVNNPSNPCGSVFSKRHLQKILAVAARQCVPILADEIYGDMVFSDCKYEPLATLSTDVPILSCGGLAKRWLVPGWRLGWILIHDRRDIFGNEIRDGLVKLSQRILGPCTIVQGALKSILCRTPGEFYHNTLSFLKSNADLCYGALAAIPGLRPVRPSGAMYLMVGIEMEHFPEFENDVEFTERLVAEQSVHCLPATCFEYPNFIRVVITVPEVMMLEACSRIQEFCEQHYHCAEGSQEECDK
# B4: Myelin proteolipid protein (Homo sapiens), P60201-2 (parent)
# chain: MGLLECCARCLVGAPFASLVATGLCFFGVALFCGCGHEALTGTEKLIETYFSKNYQDYEYLINVIHAFQYVIYGTASFFFLYGALLLAEGFYTTGAVRQIFGDYKTTICGKGLSATFVGITYALTVVWLLVFACSAVPVYIYFNTWTTCQSIAFPSKTSASIGSLCADARMYGVLPWNAFPGKVCGSNLLSICKTAEFQMTFHLFIAAFVGAAATLVSLLTFMIAATYNFAVLKLMGRGTKF
# partner: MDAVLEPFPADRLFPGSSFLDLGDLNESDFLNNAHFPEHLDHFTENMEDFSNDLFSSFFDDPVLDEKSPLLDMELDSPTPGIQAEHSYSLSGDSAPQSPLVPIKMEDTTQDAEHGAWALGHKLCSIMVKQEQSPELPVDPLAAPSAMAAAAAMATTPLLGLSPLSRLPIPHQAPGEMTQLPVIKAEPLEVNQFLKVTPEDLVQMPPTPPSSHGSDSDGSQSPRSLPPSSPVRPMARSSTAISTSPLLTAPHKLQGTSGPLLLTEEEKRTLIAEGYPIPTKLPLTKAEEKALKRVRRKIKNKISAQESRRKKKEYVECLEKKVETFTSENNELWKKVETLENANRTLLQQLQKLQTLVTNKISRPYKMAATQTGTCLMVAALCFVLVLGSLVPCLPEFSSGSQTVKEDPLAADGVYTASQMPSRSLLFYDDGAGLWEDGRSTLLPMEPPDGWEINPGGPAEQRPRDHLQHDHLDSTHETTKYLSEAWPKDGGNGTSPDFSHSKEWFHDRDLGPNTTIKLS
# B5: U4/U6 small nuclear ribonucleoprotein Prp31 (Homo sapiens), Q8WWY3 (parent)
# chain: MSLADELLADLEEAAEEEEGGSYGEEEEEPAIEDVQEETQLDLSGDSVKTIAKLWDSKMFAEIMMKIEEYISKQAKASEVMGPVEAAPEYRVIVDANNLTVEIENELNIIHKFIRDKYSKRFPELESLVPNALDYIRTVKELGNSLDKCKNNENLQQILTNATIMVVSVTASTTQGQQLSEEELERLEEACDMALELNASKHRIYEYVESRMSFIAPNLSIIIGASTAAKIMGVAGGLTNLSKMPACNIMLLGAQRKTLSGFSSTSVLPHTGYIYHSDIVQSLPPDLRRKAARLVAAKCTLAARVDSFHESTEGKVGYELKDEIERKFDKWQEPPPVKQVKPLPAPLDGQRKKRGGRRYRKMKERLGLTEIRKQANRMSFGEIEEDAYQEDLGFSLGHLGKSGSGRVRQTQVNEATKARISKTLQRTLQKQSVVYGGKSTIRDRSSGTASSVAFTPLQGLEIVNPQAAEKKVAEANQKYFSSMAEFLKVKGEKSGLMST
# partner: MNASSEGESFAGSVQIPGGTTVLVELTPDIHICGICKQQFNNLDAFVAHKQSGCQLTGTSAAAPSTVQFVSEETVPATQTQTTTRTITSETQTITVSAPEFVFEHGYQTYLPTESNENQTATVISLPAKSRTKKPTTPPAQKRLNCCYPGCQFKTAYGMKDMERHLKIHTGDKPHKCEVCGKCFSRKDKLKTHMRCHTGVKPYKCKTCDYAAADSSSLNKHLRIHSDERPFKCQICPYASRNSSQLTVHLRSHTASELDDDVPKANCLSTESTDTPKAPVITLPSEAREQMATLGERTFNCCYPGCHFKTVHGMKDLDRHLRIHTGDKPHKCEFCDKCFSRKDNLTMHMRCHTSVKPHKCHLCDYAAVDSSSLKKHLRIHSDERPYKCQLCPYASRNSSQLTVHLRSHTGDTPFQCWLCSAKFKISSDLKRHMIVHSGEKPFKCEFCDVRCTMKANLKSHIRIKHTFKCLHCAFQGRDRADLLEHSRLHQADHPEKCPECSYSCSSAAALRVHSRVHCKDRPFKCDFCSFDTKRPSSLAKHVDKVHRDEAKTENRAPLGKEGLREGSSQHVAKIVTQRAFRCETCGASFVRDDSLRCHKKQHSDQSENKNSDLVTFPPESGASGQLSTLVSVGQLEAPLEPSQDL
# B6: Complement factor H-related protein 5 (Homo sapiens), Q9BXR6 (parent)
# chain: MLLLFSVILISWVSTVGGEGTLCDFPKIHHGFLYDEEDYNPFSQVPTGEVFYYSCEYNFVSPSKSFWTRITCTEEGWSPTPKCLRMCSFPFVKNGHSESSGLIHLEGDTVQIICNTGYSLQNNEKNISCVERGWSTPPICSFTKGECHVPILEANVDAQPKKESYKVGDVLKFSCRKNLIRVGSDSVQCYQFGWSPNFPTCKGQVRSCGPPPQLSNGEVKEIRKEEYGHNEVVEYDCNPNFIINGPKKIQCVDGEWTTLPTCVEQVKTCGYIPELEYGYVQPSVPPYQHGVSVEVNCRNEYAMIGNNMITCINGIWTELPMCVATHQLKRCKIAGVNIKTLLKLSGKEFNHNSRIRYRCSDIFRYRHSVCINGKWNPEVDCTEKREQFCPPPPQIPNAQNMTTTVNYQDGEKVAVLCKENYLLPEAKEIVCKDGRWQSLPRCVESTAYCGPPPSINNGDTTSFPLSVYPPGSTVTYRCQSFYKLQGSVTVTCRNKQWSEPPRCLDPCVVSEENMNKNNIQLKWRNDGKLYAKTGDAVEFQCKFPHKAMISSPPFRAICQEGKFEYPICE
# partner: B4 partner
# Variants of: B1
# Conditions: with spdly_human SPDL1, Q96EA4
row,Variant,effect of a mutation on the interaction
1,S100P,disrupting interaction strength

# Variants of: B2
# Conditions: with lhx4_human LHX4, Q969G2
row,Variant,effect of a mutation on the interaction
1,P101L,with no effect
2,R32T,with no effect
3,G93D,with no effect

# Variants of: B3
# Conditions: with UBE3A
row,Variant,effect of a mutation on the interaction
1,L273P,disrupting interaction strength
2,R119W,with no effect
3,R433W,disrupting interaction strength
4,P220S,disrupting interaction strength

# Variants of: B3
# Conditions: with glna_human GLUL
row,Variant,effect of a mutation on the interaction
1,L273P,disrupting interaction strength
2,R119W,with no effect
3,R433W,disrupting interaction strength
4,P220S,with no effect

# Variants of: B4
# Conditions: with cr3l1_human CREB3L1, Q96BA8
row,Variant,effect of a mutation on the interaction
1,W128L,disrupting interaction strength
2,P15L,disrupting interaction strength
3,L87P,disrupting interaction strength
4,A213E,disrupting interaction strength

# Variants of: B5
# Conditions: with zf64b_human ZFP64, Q9NTW7
row,Variant,effect of a mutation on the interaction
1,L107V,with no effect

# Variants of: B6
# Conditions: with cr3l1_human CREB3L1, Q96BA8
row,Variant,effect of a mutation on the interaction
1,K144N,with no effect
2,R356H,with no effect
3,G145E,with no effect

# Reference: IntAct's records for PubMed 25910212
